Source: patent EP1870467A1 (UNIVERSITY COLLEGE LONDON, dated 2007)

Target: the molecule itself
Test: western blot, band at about 120kD read as a homodimer

B1: full length MEPE (phosphatonin) expressed in an insect cell line and excreted into the medium (ligand)
chain: PTFQPQTEKTKQSCVEEQRQEEKNKDNIGFHHLGKRINQELSSKENIVQERKKDLSLSEASENKGSSKSQNYFTNRQRLNKEYSISNKENTHNGLRMSIYPKSTGNKGFEDGDDAISKLHDQEEYGAALIRNNMQHIMGPVTAIKLLGEENKENTPRNVLNIIPASMNYAKAHSKDKKKPQRDSQAQKSPVKSKSTHRIQHNIDYLKHLSKVKKIPSDFEGSGYTDLQERGDNDISPFSGDGQPFKDIPGKGEATGPDLEGKDIQTGFAGPSEAESTHLDTKKPGYNEIPEREENGGNTIGTRDETAKEADAVDVSLVEGSNDIMGSTNFKELPGREGNRVDAGSQNAHQGKVEFHYPPAPSKEKRKEGSSDAAESTNYNEIPKNGKGSTRKGVDHSNRNQATLNEKQRFPSKGKSQGLPIPSRGLDNEIKNEMDSFNGPSHENIITHGRKYHYVPHRQNNSTRNKGMPQGKGSWGRQPHSNRRFSSRRRDDSSESSDSGSSSESDGD
notes: Secreted into insect cell medium; also called full length phosphatonin; Bac-1
binding result: binds
